From PMC5389570 come the findings set out here.

The target of one series is T1, Cdc45 (Homo sapiens, UniProt O75419 1-566).
T1 sequence: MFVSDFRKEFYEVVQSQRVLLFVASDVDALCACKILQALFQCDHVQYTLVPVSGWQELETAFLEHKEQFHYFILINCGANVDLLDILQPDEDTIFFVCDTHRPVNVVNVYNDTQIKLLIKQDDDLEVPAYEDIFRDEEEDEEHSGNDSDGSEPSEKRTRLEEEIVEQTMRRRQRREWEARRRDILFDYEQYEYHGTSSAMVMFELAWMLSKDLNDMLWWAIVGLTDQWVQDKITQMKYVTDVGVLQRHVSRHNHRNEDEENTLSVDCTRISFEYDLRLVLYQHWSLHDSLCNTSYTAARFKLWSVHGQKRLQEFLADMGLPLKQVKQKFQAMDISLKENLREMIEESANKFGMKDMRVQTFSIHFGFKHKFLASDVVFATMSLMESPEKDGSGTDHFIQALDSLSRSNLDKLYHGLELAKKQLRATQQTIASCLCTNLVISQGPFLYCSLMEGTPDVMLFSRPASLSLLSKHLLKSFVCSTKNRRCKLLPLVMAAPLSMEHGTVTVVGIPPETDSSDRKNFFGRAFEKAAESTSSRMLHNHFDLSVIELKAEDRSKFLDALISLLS
Put plainly: EMSA.

A further series has as its target SSB (Escherichia coli, UniProt P0AGE0 1-178). Put plainly: EMSA.
Series [1] has as its target T2, RPA heterotrimer (RPA70/RPA32/RPA14) (Homo sapiens, UniProt P27694;P15927;P35244 1-616;1-270;1-121). Put plainly: EMSA.
Series [2] deals with T2, RPA heterotrimer (RPA70/RPA32/RPA14). Put plainly: SPR.
Series [3] shares this target. Put plainly: EMSA. The source holds these as a separate data set.
For series [4] the target is unchanged. Put plainly: SPR. This is another data set of the same source.

Read-outs that look alike come from different tables or passages of the source.

T2 sequence (P27694 whole entry, chain 1 of 3): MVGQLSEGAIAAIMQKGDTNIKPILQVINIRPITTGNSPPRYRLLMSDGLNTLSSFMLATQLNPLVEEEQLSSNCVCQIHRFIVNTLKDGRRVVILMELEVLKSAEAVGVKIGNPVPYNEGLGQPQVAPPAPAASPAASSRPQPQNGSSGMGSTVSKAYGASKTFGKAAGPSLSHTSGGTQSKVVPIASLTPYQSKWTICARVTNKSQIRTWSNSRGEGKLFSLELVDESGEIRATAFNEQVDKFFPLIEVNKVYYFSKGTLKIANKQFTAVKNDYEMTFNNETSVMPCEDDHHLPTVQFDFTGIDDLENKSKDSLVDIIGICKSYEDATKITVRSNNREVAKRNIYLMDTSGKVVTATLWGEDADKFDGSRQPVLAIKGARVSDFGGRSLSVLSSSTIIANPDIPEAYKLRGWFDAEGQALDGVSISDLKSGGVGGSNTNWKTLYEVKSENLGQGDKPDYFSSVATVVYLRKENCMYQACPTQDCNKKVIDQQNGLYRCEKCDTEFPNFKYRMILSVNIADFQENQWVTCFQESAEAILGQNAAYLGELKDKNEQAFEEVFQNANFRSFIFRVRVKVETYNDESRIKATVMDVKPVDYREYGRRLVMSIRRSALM
T2 sequence (P15927 whole entry, chain 2 of 3): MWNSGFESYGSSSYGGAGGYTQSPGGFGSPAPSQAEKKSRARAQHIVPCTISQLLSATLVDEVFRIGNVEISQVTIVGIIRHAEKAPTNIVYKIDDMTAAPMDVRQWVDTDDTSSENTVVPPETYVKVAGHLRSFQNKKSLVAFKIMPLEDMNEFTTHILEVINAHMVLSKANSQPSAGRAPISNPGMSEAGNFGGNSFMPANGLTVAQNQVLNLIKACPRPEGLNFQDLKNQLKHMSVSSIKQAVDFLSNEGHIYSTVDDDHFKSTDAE
T2 sequence (P35244 whole entry, chain 3 of 3): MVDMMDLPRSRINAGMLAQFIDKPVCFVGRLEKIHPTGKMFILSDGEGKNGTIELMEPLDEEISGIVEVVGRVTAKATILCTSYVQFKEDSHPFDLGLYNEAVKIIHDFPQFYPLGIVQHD
SSB, sequence (P0AGE0 whole entry): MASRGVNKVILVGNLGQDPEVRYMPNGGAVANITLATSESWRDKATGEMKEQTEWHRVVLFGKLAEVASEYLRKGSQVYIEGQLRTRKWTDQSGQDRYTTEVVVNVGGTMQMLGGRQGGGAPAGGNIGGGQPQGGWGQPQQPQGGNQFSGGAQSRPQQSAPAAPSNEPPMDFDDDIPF

On to GCTTGCATGCCTGCAGGCCAGCCTCAATCTCATC (ssDNA) [M2 (34-mer)], for which the binding result is reported as “no binding” with Cdc45 and “binds” with SSB. The molecule also returned a binding signal in series [1] above 5 fold vs RPA alone. In series [2], GCTTGCATGCCTGCAGGCCAGCCTCAATCTCATC (ssDNA) [M2-biotin (34-mer)] registered a dissociation constant (Kd) of 1.53 ± 1.3 nM.

B1: M5 (67-mer; called 65-mer in text) (ssDNA)
DNA: GTACCCGGGGATCCTCTAGAGTCGACCTGCAGGCATGCAAGCTTGGCACTGGCCGTCGTTTTACAAC
With B1, the binding signal in series [3] was around 4 fold vs RPA alone. As to GGCTGGCATG (ssDNA) [M10-biotin (10-mer)], the results for the Kd in series [4] and in series [2] were 112 ± 14 nM and 44.1 ± 4.7 nM, respectively.
